Measured values published in patent US9902783B2, “Antibodies and pharmaceutical compositions containing same useful for inhibiting activity of metalloproteins” (Yeda Research and Development Co. Ltd., priority 2007, dated 2018).

B1: 6C6: monoclonal antibody, IgG2a, raised against the hapten Imisdp; MMP-2 and MMP-9 inhibitory; SEQ ID NO: 1 (protein)
chain: CMETTQTPLSLPVSLGDQASISCRSSQSIVHSNGNTFLEWYLQKPGQSPKLLIYKVSNCRFSGVPDRFSGSGSGTDFTLKISRVEAEDLGVYYCFQASHVPPTFGGG
modifications: 6c6 mAb light chain
B2: 13E11: monoclonal antibody, IgG2b, raised against the hapten CoTCPP (antibody, V domains shown)
VH: EGGGLVQPGGSRKLSCAASGFTFTSFGMHWVRQAPEKGLEWVAYISSGNEIIYYADTVKGRFTISRDNPKNTLFLQMTSLRSEDTAMYYCARNYYRYGFYVMDYWGQG
VL: EIVVTQSPAILSASPGEKVTMTCRASSSVSYMHWYQQKPGSSPKPWIYATSNELASGVPARFSGSGSGTSYSLTISRVEAEDAATYYCQQWISNPLTFGAG
modifications: 13E11 mAb heavy chain; 13E11 mAb light chain
notes: monoclonal antibody, IgG2b, raised against the hapten CoTCPP

How the values were obtained:
[1] = biological target: T1, catalytic zinc ion of MMP9 (Homo sapiens, UniProt P14780); experiment: X-ray absorption spectroscopy of MMP9-6C6 complex; details: zinc K edge XAS, MMP-9 catalytic domain-mAb complex
T1 construct: lacking the hinge region and the hemopexin domain, Ala1-Gly424 |P14780|MMP9_HUMAN; made in house
T1 sequence (P14780 94-444): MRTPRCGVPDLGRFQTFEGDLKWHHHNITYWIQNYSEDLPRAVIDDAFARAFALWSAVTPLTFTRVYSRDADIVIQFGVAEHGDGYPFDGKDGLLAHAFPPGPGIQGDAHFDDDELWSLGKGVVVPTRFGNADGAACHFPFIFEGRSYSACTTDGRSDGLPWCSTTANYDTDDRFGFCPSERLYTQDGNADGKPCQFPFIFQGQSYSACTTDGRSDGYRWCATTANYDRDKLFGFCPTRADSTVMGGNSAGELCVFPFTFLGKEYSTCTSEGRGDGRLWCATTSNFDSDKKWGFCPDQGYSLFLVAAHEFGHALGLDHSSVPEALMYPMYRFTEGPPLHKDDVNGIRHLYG
Source text: FIG. 16 is a graph of results from X-ray absorption spectroscopy at the zinc K edge of active MMP9 (black) and inhibited MMP9-6C6 complex (red). The results are presented in the form of radial distribution from the zinc ion. The edge position the MMP-9 catalytic domain-mAb complex (red) shifts to a higher energy relative to active MMP-9 (inset) indicating binding to the catalytic zinc ion. […] Remarkably, this mode of binding is analogous to the binding of TIMPs at the active site of MMPs.
In order to further study the differences between active MMP9 and an inhibited MMP9-6C6 complex, X ray absorption spectroscopy was performed. […] The data is presented in the form of Fourier transform (FT) spectra to provide the radial distribution of the various atoms within the first and second coordination shells of the catalytic zinc ion in MMP9. Apparent change in the radial distribution spectra of the free and inhibited enzyme can be observed above the noise level. These spectral changes indicate that the local environment of the catalytic zinc ion undergoes structural changes upon binding to 6C6. The observed deviation in both spatial distribution and peak intensities of the FT spectral features between the active and the inhibited enzyme indicate unequivocally that the local structure of the catalytic zinc changes upon mAb complex formation.

DSS-induced colitis = experiment: DSS induced acute colitis in mice; type: in vivo, C57BL/6 mice; details: for reduction in colon length: 11 days after DSS induction, versus naïve mice
Procedure: FIGS. 15A-15C are graphs illustrating the effect of 6C6 treatment on the various manifestations of acute DSS colitis in C57BL/6 mice. Disease was induced by 2% DSS for 5 days. 6C6 treatment, 5 or 1.5 mg/kg mouse, was administered by daily i.p. injection starting from day 0. FIG. 15A: Clinical score was evaluated by daily monitoring of DAI (which is the combined score of body weight, rectal bleeding and stool consistency, on a scale of 0-4). Data are expressed as the dot distribution of a mean for each animal of days 6 to 10. FIG. 15B: Colon length. FIG. 15C: Mortality. The data presented are the combined results of two experiments, with a total of 15 mice per group.*, significant effect over colitis-untreated mice (p<0.05).
To explore the inhibitory activity of 6C6, the ability of mAb treatment to ameliorate DSS induced acute colitis was examined Specifically, 2% DSS was provided to the highly susceptible mouse strain C57BL/6 for five days. 6C6 treatment was given daily by intraperitoneal injections of 1.5 or 5 […], starting at the day of induction. Mice exposed to 2% DSS developed symptoms of acute colitis, with diarrhea, rectal bleeding and severe weight loss.

MT1 catalytic domain = experiment: immuno affinity binding assay, MT1-MMP; details: purified enzyme
Procedure: MAbs (10 μg) were incubated with anti mouse IgG Agarose beads (Sigma) overnight at 4° C. in PBS. After washing unbound antibody, purified Pro-MMP-2, Pro-MMP-9 MMP-2 catalytic domain, MT1 catalytic domain or TACE (2 μg), were added following 2 h incubation at RT. The beads were collected by centrifugation and washed three times with PBS. The proteins that remained bound to the beads were eluted with SDS sample buffer, fractionated by SDS-PAGE, and detected by staining with Coomassie blue.

[2] = biological target: T2, Heme group within Myoglobin (Homo sapiens, UniProt P02144); experiment: cross reactivity, competitive ELISA and immuno affinity assay, Myoglobin; type: binding
T2 sequence (P02144 1-154): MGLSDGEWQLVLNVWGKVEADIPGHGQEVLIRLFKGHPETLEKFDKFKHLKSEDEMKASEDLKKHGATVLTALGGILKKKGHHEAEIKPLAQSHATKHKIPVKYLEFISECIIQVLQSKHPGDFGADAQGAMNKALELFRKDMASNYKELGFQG
Source text: The selectivity of anti CoTCPP and anti Imisdp was further challenged, by testing their cross reactivity with non related zinc dependent enzymes—Carbonic Anhydrase (CA) and brockii alcohol dehydrogenase (TbADH). Similar to active MMPs CA contains a zinc ion that is tetrahedraly coordinated to three histidine residues and a water molecule, TbADH contains a catalytic zinc ion that is tetraheadrally coordinated to four different amino acid residues, histidine, cysteine, aspartate and glutamate. […] Anti CoTCPP mAb was also tested for its cross reactivity with related physiological porphyrins such as the Heme group within Myoglobin and Hemoglobin and vitamin.

| Molecule | binding mode at the catalytic zinc ion [1] | reduction in colon length (DSS-induced colitis; 1.5 mg/kg mouse daily i.p.) [%] | reduction in colon length (DSS-induced colitis; 5 mg/kg mouse daily i.p.) [%] | disease activity index (DAI) (DSS-induced colitis; 2% DSS 5 days, daily i.p. mAb from day 0, versus untreated control) | mortality rate (DSS-induced colitis; 11 days after induction, 6C6 treated mice) [%] | binding to MT1-MMP (MT1 catalytic domain) | cross reactivity with Myoglobin [2] |
| --- | --- | --- | --- | --- | --- | --- | --- |
| B1 | directly binds the zinc ion | 22 | 16 | decreased disease activity | 33 | – | – |
| B2 | – | – | – | – | – | no binding was detected | No cross was detected |
